Laboratory results taken from US20140030274A1 (ALPHABETA, published 2014).

B1: proSP-C BRICHOS (recombinant human, His59 to Ile197 of proSP-C, Examples 4-8) (other)
chain: HMSQKHTEMVLEMSIGAPEAQQRLALSEHLVTTATFSIGSTGLVVYDYQQLLIAYKPAPGTCCYIMKIAPESIPSLEALNRKVHNFQMECSLQAKPAVPTSKLGQAEGRDAGSAPSGGDPAFLGMAVNTLCGEVPLYYI
notes: Expressed in E. coli, with the thioredoxin and His6-tag removed by thrombin; Gel filtration indicates a trimer at 0 h and monomers eluting with Aβ after 20 h; also called recombinant human proSP-C BRICHOS; BRICHOS protein
B2: Bri2 BRICHOS (recombinant human Bri2 BRICHOS construct as described in Peng et al. 2010) (other)
chain: GIKYIKDDVILNEPSADAPAALYQTIEENIKIFEEEEVEFISVPVPEFADSDPANIVHDFNKKLTAYLDLNLDKCYVIPLNTSIVMPPRNLLELLINIKAGTYLPQSYLIHEHMVITDRIENIDHLGFFIYRLCHDKETYKLQRRET
notes: also called Bri2 BRICHOS domain; BRICHOS protein
B3: CTproSP-C, the C-terminal domain of lung surfactant protein C precursor (residues 59-197 of human proSP-C) (other)
chain: B1 chain
notes: also called CTC; recombinant CTC
B4: crystallised proSP-C BRICHOS trimer (seleno-methionylated CTC after in situ proteolysis with trypsin, residues 82-160 and 168-197 of proSP-C) (other)
chain 1: LALSEHLVTTATFSIGSTGLVVYDYQQLLIAYKPAPGTCCYIMKIAPESIPSLEALNRKVHNFQMECSLQAKPAVPTSK
chain 2: DAGSAPSGGDPAFLGMAVNTLCGEVPLYYI
modifications: seleno-methionylated protein; seleno-methionylated protein; disulfide bridge Cys121-Cys189 to the second chain
notes: There are two trimers per asymmetric unit, and data extend to 2.1 Å; Residues about 149-180 are not modelled; also called crystallized protein

Legend:
Aβ(M1-40) [1] = biological target: T1, Aβ(M1-40) (human); assay: estimate from peak shapes in gel filtration (intermediate exchange on the gel filtration time scale)
T1 construct: Expressed in E. coli from a synthetic gene, and the monomer was isolated by gel filtration; also called Aβ40; human Aβ1-40 peptide
T1 sequence (peptide, as listed by the source): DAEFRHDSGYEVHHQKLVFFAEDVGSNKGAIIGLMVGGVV
Method: Samples were injected from a 1 mL loop and chromatograms recorded by monitoring the absorbance at 280 nm. To monitor protein interactions, mixtures of Aβ and BRICHOS domains were injected directly after mixing or after 2 or 20 hours incubation at 37° C. in 20 mM Na-phosphate, 200 μM EDTA, 0.02% NaN₃ at pH 7.4 or pH 8.0. Fractions (0.3-0.7 ml) were collected during the chromatogram, lyophilized and analyzed by SDS PAGE in a 10-20% gradient gel.
The interaction between the BRICHOS proteins and Aβ was studied using gel filtration. Samples of 8 μM Aβ40 and 0.8 μM proSP-C BRICHOS, or 8 μM Aβ40 and 0.8 μM Bri2 BRICHOS, were incubated for 20 hours at 37° C., followed by gel filtration on a Superdex75 column, and SDS PAGE analysis of collected fractions.
The 20 h time point was chosen for investigating potential interactions between the BRICHOS protein and Aβ, because at this time point Aβ alone would have fibrillated and reached the equilibrium plateau, whereas samples containing 0.1 molar equivalent of proSP-C or Bri2 BRICHOS are still in the lag phase (c.f. FIG. 9). The data in FIG. 11 show clearly that at this time point almost all of Aβ40 is monomeric, while a minor fraction elutes together with proSP-C BRICHOS in fractions 2-6. Similar results are observed for 8 μM Aβ40 and 0.8 μM Bri2 BRICHOS (FIG. 12B). […]

Aβ(M1-40) [2] = biological target: T1, Aβ(M1-40); assay: cell-based or functional assay
Aβ(M1-42) = Aβ(M1-42) (human); assay: cell-based or functional assay
Chain of Aβ(M1-42) (human) (peptide, as listed by the source): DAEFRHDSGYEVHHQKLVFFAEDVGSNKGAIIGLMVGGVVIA

KKAAAAAAAKK = biological target: T2, KKAAAAAAAKK; assay: HDX-MS
T2 construct: Non-substrate peptide; also called A7; KKA7KK
T2 peptide: KKAAAAAAAKK
Method: (§1) Deuterated buffers were prepared by three rounds of freeze-drying of the 1 M stock Tris buffer, pH 8, and reconstitution in 99.9% D₂O (Cambridge Isotopes, Andover, Mass.) to a final Tris concentration of 20 mM. To start the incubation at 22° C., CTC (CTproSP-C) stock solution with a concentration of 0.9 mM was diluted in deuterated Tris buffer to a final deuterium content of 92.5%. For CTC/peptide and proSP-C BRICHOS/peptide interaction studies, KKV₇KK, KKV₅KK, or KKA₇KK were pre-incubated with either Tris buffer or proteins, for 10 min at 22° C., and subsequently diluted in deuterated Tris buffer. Final concentrations were 30 μM CTC or proSP-C BRICHOS and 40 μM peptide. The deuterium content was 92.5%. Aliquots of 20 μl were collected in triplicates from three separate incubations after 1, 5, 10, 30, and 60 min. Fully deuterated protein was prepared by freeze-drying a sample of CTC, followed by resuspension in 99.9% D₂O and incubation for 4 h at 50° C. Deuterium exchange was quenched by transferring aliquots to pre-chilled Eppendorf tubes containing 0.5 μL 5% trifluoroacetic acid (TFA) (Merck, Darmstadt, Germany), vortexing, and freezing in liquid nitrogen. Samples were kept in liquid nitrogen until analyzed.
(§2) Aliquots of deuterated CTC were thawed and injected into an HPLC system using a pre-chilled Hamilton syringe. The system was submersed in an ice bath during analysis. […]

KKVVVVVKK = biological target: T3, KKVVVVVKK; assay: HDX-MS, 30 µM CTC and 40 µM peptide
T3 construct: Substrate peptide; also called V5; KKV5KK
T3 peptide: KKVVVVVKK
Method: as §1, §2

KKVVVVVVVKK = biological target: T4, KKVVVVVVVKK; assay: HDX-MS, 30 µM CTC and 40 µM peptide
T4 construct: Substrate peptide; also called V7; KKV7KK
T4 peptide: KKVVVVVVVKK
Method: as §1, §2

[3] = biological target: the molecule itself; assay: crystal structure, subunit to subunit in the homotrimer
Method: Crystals suitable for structure determination were obtained within weeks by means of in situ proteolysis with trypsin. […] The structure presented herein was derived from crystals of seleno-methionylated protein, obtained using the sitting-drop method at 293 K and 277 K, in various concentrations ranging between 0.3-0.7 mM. A single crystal belonging to space group C2 (a=132.05 Å, b=39.33 Å, c=114.76 Å, β=99.6°) was grown from 0.1 M Bis-Tris pH 6.5 and 20% (w/v) PEG MME 5K. The crystal was soaked in 30% (w/v) PEG 400, flash-frozen in liquid nitrogen and used for data collection.
Data to 2.1 Å were collected at the European Synchrotron Radiation Facility, France, using an ADSC Q315 detector on the ID23eh1 beam line. All data were processed in MOSFLM12 and scaled in SCALA13. Data are essentially 100% complete to 2.3 Å Bragg spacing, then drop off rapidly and are only ˜60% complete in the outer resolution shell to 2.1 Å.

| Binder | koff (Aβ(M1-40) [1]) | 10-fold increase in lag time of Aβ40 aggregation (ThT fluorescence) (Aβ(M1-40) [2]) | molar ratio above which the lag time of Aβ40 aggregation exceeds one week (Aβ(M1-40) [2]) | ratio above which Aβ40 aggregation does not occur within one week (Aβ(M1-40) [2]) | ten-fold increase in lag time of Aβ42 aggregation (ThT fluorescence) (Aβ(M1-42)) | binding result (KKAAAAAAAKK) | binding result (KKVVVVVKK) | binding result (KKVVVVVVVKK) | binding result [3] |
| --- | --- | --- | --- | --- | --- | --- | --- | --- | --- |
| B1 | 0.001 to 0.01 s⁻¹ | ~0.03 equivalents | 0.06 molar ratio | 10 Aβ40 molecules per 1 proSP-C BRICHOS | ~0.6 molar equivalents | – | – | – | – |
| B2 | 0.001 to 0.01 s⁻¹ | ~0.01 equivalents | 0.025 molar ratio | – | ~0.6 molar equivalents | – | – | – | – |
| B3 | – | – | – | – | – | no binding (tested: 30 µM CTC and 40 µM peptide) | binds | binds | – |
| B4 | – | – | – | – | – | – | – | – | binds |
